Results: the supplement of paper PMC9170038

Tested on: MS2 coat protein
Test: apparent KD of MS2 coat protein; designed switch direction (-1 OFF switch, 1 ON switch): 1; higher = weaker reporter binding
Procedure, shortened: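 Designed RNA switches with common flanks were transcribed on Illumina chips by stalled E. coli RNA polymerase and titrated with SNAP-549-labelled MS2 coat protein, from 0.7 or 1.5 nM doubling to 3 µM, in Tris-HCl pH 7.5 buffer with KCl, MgCl2, BSA, DTT, tRNA and Tween-20. Steps lasted 0.8–1.5 h (lowest) to 10–20 min (highest). Titrations ran without input, with 200 uM small-molecule ligand, or with an oligonucleotide input. Normalised cluster fluorescence was curve-fitted, and apparent KD is the per-design median over clusters.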

[1] = Eterna round: R95, input ligand: FMN 200 uM
[2] = Eterna round: R95, input ligand: microRNA oligo, concentration not stated
[3] = Eterna round: R95, input ligand: none
[4] = input ligand: microRNA oligo, concentration not stated

Sequence	apparent KD of MS2 coat protein [1] [nM]	apparent KD of MS2 coat protein [2] [nM]	apparent KD of MS2 coat protein [3] [nM]	apparent KD of MS2 coat protein (input ligand: FMN 200 uM) [nM]	apparent KD of MS2 coat protein [4] [nM]	apparent KD of MS2 coat protein (input ligand: none) [nM]
UCUUGGUUUUUGCUCGUUUUUUGUGUUGAACAUGAGGAUCACCCAUGUAUUGUACGGUCCGGUUUAGUAGUGGUCCG [JMF 17] (puzzle: Sensor for hsa-mir-208a)	25.7	16.6	30.4			
CCGCUCUAUGGAGGAUAUGGGCCUGCCCGGGAUAACGGGCCUAAUACAUGAGGAUCACCCAUGUCCCAGAAGGCCGCUAGAGCC [Errexexe] (Eterna round: R96, puzzle: Same State NG 2)				120	348	471
GCUACCAUUGAAGCCUACAUGAGGAUCACCCAUGUAUGUAGGCAGGAUAUCGAUUGCAAAGCGAUCGAGAAGGGCUUAGGUAGC [Mat - Same State NG 3 - JL Mod - D90] (Eterna round: R96, puzzle: Same State NG 3)				30.8	52.2	79.1
AUUGCUAUCACAGGAUAUCAUGCGAAAAUUGCGUGAGAAGGGUGGACUCUGUCAUUCACGGAGGACAUGAGGAUCACCCAUGUC [SameState NG1 #81] (Eterna round: R96, puzzle: Same State NG 1)				1020	15.5	32.3
GCUACCAUUGAAGCCAACAUGAGGAUCACCCAUGUAUGUUGGUAGGAUAUCGAUUGCAAAGCGAUCGAGAAGGGCUAAGGUAGC [Mat - Same State NG 3 - JL Mod - D81] (Eterna round: R96, puzzle: Same State NG 3)				81.2	57.4	66.8
CUGAAAUGUCAAGGAUAUCACGUCGAUUAGACGUGAGAAGGUGAUCUGCACAUGAGGAUCACCCAUGUGUUACAUGGAAUUCAG [Brourd's SSNG1/1-A2 mod 13] (Eterna round: R96, puzzle: Same State NG 1)				166	406	503
GUCAGCGAUUGAGGAUAUCACGUCGAAUAGACGUGAGAAGGCGAUCAUAACAUGAGGAUCACCCAUGUAUUACAUGAAGCUGAC [SSNG1/5-A1] (Eterna round: R96, puzzle: Same State NG 1)				15.2	22.4	29.1
ACAAGCUUUUCUGCAUUGAAAGGUUGGUUACAUGAGGAUCACCCAUGUUUUUAUGAAAAUAAUGCUCCUCGUCUUAU [JR_SHM208A_Sub093] (puzzle: Sensor for hsa-mir-208a)	264	19.8	252			
AGCUAUUAAUCAGGAUAUAGGGACAUGAGGAUCACCCAUGUGUACAUGAGUAAAUGUGAUCACGUCUAGAAGGGAUUACUAACA [SameState NG2 #38] (Eterna round: R96, puzzle: Same State NG 2)				184	92.9	133
GUUAAACAUGAGGAUCACCCAUGUAAUAAUAUGGGAGGAUAUCAGAAAGUAUGUAUGAAAUGAGAAGGCCUAAUUG [Mat - Same State 1 - Mod of Eli - D78] (puzzle: Same State 1)	57.9	154	124			
GAGGAACAGGCCAACAUGAGGAUCACCCAUGUCCUCGCACUUCAGGAUAUCUGGAGGAAGAAGAAAGAGAAGGGAAGGUGAAGC [AK SSNG3-V2-34.2] (Eterna round: R96, puzzle: Same State NG 3)				202	30.1	19.3
UGAAUAAUGUUAGGAUAUACAUGAGGAAUCCUCGUAGAAGGAACAUGACAUGAGGAUCACCCAUGUAGCGCUCAGAAGAGCGCA [Mat - Same State NG 1 - JL mod - D50] (Eterna round: R96, puzzle: Same State NG 1)					73.4	
GGAAGGAGGUCAGGAUAUGAAUGGAAAGUACAUGAGGAUCACCCAUGUUAUGGAGGAAGGAAACGUUAGAAGGGAUAAGGAAGG [AK SSNG2-V2-2] (Eterna round: R96, puzzle: Same State NG 2)				32	26.8	41.5
GGAUGAUUGACAGGAUAUCAUUUGUAAAUUCGAUGAGAAGGGUCGAUUACUUACACGACGUGUUACAUGAGGAUCACCCAUGUU [SameState NG1 #5] (Eterna round: R96, puzzle: Same State NG 1)				53.7	116	148
GGAUGAUUAACAGGAUAUCAUUUGUAAAUUGGUUGAGAAGGGUUAAUGAUUUACACGACCUGUUACAUGAGGAUCACCCAUGUU [SameState NG1 #2] (Eterna round: R96, puzzle: Same State NG 1)				41	33.8	47.2
CUGCACCGUGGAGGAUAUGGGCUGAGGCCAGGACAACCCUGGCCAACAUGAGGAUCACCCAUGUCCCAGAAGGCCACAGUGCUA [Zaenmaxe] (Eterna round: R96, puzzle: Same State NG 2)				15.1	86.7	112
UUUAUAUUCAGAGGAUAUUGAUGUUGUAUUUUACAAGAAGGCUGAUUGUUUUGUAAUGUUAUUAAACAUGAGGAUCACCCAUGU [JR_SSNG1_Sub013] (Eterna round: R96, puzzle: Same State NG 1)				19.7	22.5	27.3
AGUCCAGCCUGAGCUGGACAAAGACAUGUACAUGAGGAUCACCCAUGUCAUGUACAAGUUUUUUGCUCGUCUUAUAA (puzzle: Sensor for hsa-mir-208a)	36.7	12.5	44.1			
AACCUACAUGAGGAUCACCCAUGUAUCUGAGGCACAGGAUAUCGACAGGCAAGACACCUGCGAGAAGGGUGACCUC [Same State 1 - Mod of Vinnie Diatater v.2] (puzzle: Same State 1)		53.6				
GUAAGUUUGAUGCUCGUCUCUCCGUACAAACAUGAGGAUCACCCAUGUGGUCGGGAAGUAGCCCGGCCAGUAUGGCC [Rerire] (puzzle: Sensor for hsa-mir-208a)	24.8	21.4	26.8			
GAGAGAGGAAGCGAGGAUAUCGUGUUGAGUACAUGAGGAUCACCCAUGUUGUAGGUAGAGGUAGGCGAGAAGGCGCAGGAGAGGG [JR_SS2_Sub099] (puzzle: Same State 2)	43	43.2	51			
AUAAAACAUGAGGAUCACCCAUGUAAUCGCCAGACAGGAUAUAUAGUGGCAUUUGCAGGGAUAGAAGGGUCGUGGC [Lerainxege] (puzzle: Same State 1)	15.6	35.1	37			
GGCUAUCGCGUACGAUAGCUUAAGCGUGUACAUGAGGAUCACCCAUGUCAUGUACAAGCUUUUUGCUCGUCUUAUUG [JL-shm-2.34 JL mod] (puzzle: Sensor for hsa-mir-208a)	195	19.4	493			
AUGCCAAAUCAAGGAUAUGGAUCCUUAUUGGAUCCAGAAGGUGGGACAUGAGGAUCACCCAUGUGGCAGUGGUCUAAUGACCAC [Fiskers NG1ss - 30] (Eterna round: R96, puzzle: Same State NG 1)				61	185	281
GUGGUCAGACAUGAGGAUCACCCAUGUGGAAUAAAUAAGGGAGAGGAUAUAAAAUAUAGGAUAUAUUAGAAGGCUCGGUUGGUG (Eterna round: R96, puzzle: Same State NG 3)				95.7	82.7	85.4
AGGAAGGAGACUGAGGAUAUCGUUGAGAGGACAUGAGGAUCACCCAUGUGUAUAGGAUUGGAGAACGAGAAGGCAGAGGAGUGGG [JR_SS2_Sub047] (puzzle: Same State 2)	58	76.2	101			
ACAUGAGAUCGAGGAUAUUUUGUACCUACAUGUGACAUGAGGAUCACCCAUGUGGUAAGUAUGAGAAAGAAGGCGAAGAUAUGU [Equivalence 16 - Jieux - Same State NG 2] (Eterna round: R96, puzzle: Same State NG 2)					29.3	
GAGCCAGUCCGAGGAUAUUCAUAUUAAACAUGAGGAUCACCCAUGUAGGCUCAGAAAGAGCCUUGGGAGAAGGCGGACUGGCUC [Xeonanisa<<1] (Eterna round: R96, puzzle: Same State NG 2)				16.7	182	201
